Source: article PMC3750979

How the values were obtained:
NHis-Purβ III = biological target: T1, NHis-Purβ III (Mus musculus, UniProt O35295 209-303); experiment: ssDNA-binding ELISA
T1 sequence: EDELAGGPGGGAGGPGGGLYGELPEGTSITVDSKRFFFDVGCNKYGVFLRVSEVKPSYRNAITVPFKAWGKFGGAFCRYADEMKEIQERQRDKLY

NHis-Purβ I-II-III [1] = biological target: T2, NHis-Purβ I-II-III (Mus musculus, UniProt O35295 41-303); experiment: ssDNA-binding ELISA
T2 sequence: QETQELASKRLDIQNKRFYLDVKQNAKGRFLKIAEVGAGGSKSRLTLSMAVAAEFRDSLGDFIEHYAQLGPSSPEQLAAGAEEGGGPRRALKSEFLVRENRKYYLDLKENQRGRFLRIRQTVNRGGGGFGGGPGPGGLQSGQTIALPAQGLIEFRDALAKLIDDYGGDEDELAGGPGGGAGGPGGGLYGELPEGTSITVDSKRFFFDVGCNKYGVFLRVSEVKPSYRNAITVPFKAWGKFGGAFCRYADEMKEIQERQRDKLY

NHis-Purβ (full-length) [2] = biological target: T3, NHis-Purβ (full-length) (Mus musculus, UniProt O35295 1-324); experiment: ssDNA-binding ELISA
T3 sequence: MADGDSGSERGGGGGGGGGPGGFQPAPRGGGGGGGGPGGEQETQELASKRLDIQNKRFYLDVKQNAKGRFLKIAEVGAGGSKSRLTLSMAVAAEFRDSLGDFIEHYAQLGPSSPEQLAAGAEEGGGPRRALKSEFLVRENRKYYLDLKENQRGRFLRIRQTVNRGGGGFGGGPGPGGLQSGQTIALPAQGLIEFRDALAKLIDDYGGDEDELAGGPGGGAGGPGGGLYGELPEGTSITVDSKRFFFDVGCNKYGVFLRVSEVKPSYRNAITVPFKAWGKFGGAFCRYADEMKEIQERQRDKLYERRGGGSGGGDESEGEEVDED

NHis-Purβ I-II-III [3] = biological target: T2, NHis-Purβ I-II-III; experiment: competition
NHis-Purβ (full-length) [4] = biological target: T3, NHis-Purβ (full-length); experiment: competition

GGGAGCAGAACAGAGGAATGCAGTGGAAGAGA (ssDNA) [PE32-bF]
apparent K (half saturation) (NHis-Purβ III): 1.8 ± 0.74 nM
apparent K (half saturation) (NHis-Purβ I-II-III [1]): 0.22 ± 0.05 nM
apparent K (half saturation) (NHis-Purβ (full-length) [2]): 0.16 ± 0.05 nM
IC50 (NHis-Purβ I-II-III [3]): 1 ± 0.3 nM
IC50 (NHis-Purβ (full-length) [4]): 1.2 ± 0.2 nM
